Results: patent publication US20240294570A1 (BRANDEIS UNIVERSITY, published 2024)
Non-standard residues stand in square brackets, D forms with d. No end group written: not given here. *: point of attachment. pY = N[C@@H](Cc1ccc(OP(=O)(O)O)cc1)C(=O)O; NBD = O=[N+]([O-])c1ccc(*)c2nonc12; βAla = NCCC(=O)O

Molecular target: Alkaline phosphatase (Biomatik, Cat. No. A1130)
Assay: cell-based or functional assay

B1: L-phosphopentapeptide 5, NBD-βA-LLLLpY (peptide)
peptide: {NBD}-[βAla]LLLL[pY]
half-life of 5 (400 µM) with 0.1 U/mL ALP: 122 min
half-life of 5 at 100 µM with 0.5 U/mL ALP (LC-MS): 27.3 min
half-life of 5 at 200 µM with 0.5 U/mL ALP (LC-MS): 21.6 min
half-life of 5 at 400 µM with 0.5 U/mL ALP (LC-MS): 30.6 min

B2: phosphopentapeptide 9, NBD-βA-llllpY (peptide)
peptide: {NBD-βAla}-[dL][dL][dL][dL][pY]
half-life of 9 at 100 µM with 0.5 U/mL ALP: 24.6 min
half-life of 9 at 200 µM with 0.5 U/mL ALP: 21.6 min
half-life of 9 at 400 µM with 0.5 U/mL ALP: 27 min

B3: phosphopentapeptide 7, NBD-βA-LLpYLL (peptide)
peptide: {NBD}-[βAla]LL[pY]LL
half-life of 7 at 100 µM with 0.5 U/mL ALP: 127 min
half-life of 7 at 200 µM with 0.5 U/mL ALP: 112 min
half-life of 7 at 400 µM with 0.5 U/mL ALP: 126 min
